Test results from PMC13086964 (Nature Communications, 2026).
Values belong to the binder of their own block, whether it stands above or below them.

Key:
[1] = target: T1, purified recombinant His-USP7, full-length (human, UniProt Q93009 1-1102); assay: pull-down; GST-FAN1-NTD on Glutathione Sepharose beads, 0.5 µg recombinant His-USP7, 1 h at 4 °C in PBS-1% Triton; washes with 300 mM NaCl; immunoblotting; details: both partners purified
T1 construct: human USP7, recombinant, full-length; also called human recombinant USP7; source: bought: R&D Systems (# E-519)
T1 sequence (Q93009 whole entry): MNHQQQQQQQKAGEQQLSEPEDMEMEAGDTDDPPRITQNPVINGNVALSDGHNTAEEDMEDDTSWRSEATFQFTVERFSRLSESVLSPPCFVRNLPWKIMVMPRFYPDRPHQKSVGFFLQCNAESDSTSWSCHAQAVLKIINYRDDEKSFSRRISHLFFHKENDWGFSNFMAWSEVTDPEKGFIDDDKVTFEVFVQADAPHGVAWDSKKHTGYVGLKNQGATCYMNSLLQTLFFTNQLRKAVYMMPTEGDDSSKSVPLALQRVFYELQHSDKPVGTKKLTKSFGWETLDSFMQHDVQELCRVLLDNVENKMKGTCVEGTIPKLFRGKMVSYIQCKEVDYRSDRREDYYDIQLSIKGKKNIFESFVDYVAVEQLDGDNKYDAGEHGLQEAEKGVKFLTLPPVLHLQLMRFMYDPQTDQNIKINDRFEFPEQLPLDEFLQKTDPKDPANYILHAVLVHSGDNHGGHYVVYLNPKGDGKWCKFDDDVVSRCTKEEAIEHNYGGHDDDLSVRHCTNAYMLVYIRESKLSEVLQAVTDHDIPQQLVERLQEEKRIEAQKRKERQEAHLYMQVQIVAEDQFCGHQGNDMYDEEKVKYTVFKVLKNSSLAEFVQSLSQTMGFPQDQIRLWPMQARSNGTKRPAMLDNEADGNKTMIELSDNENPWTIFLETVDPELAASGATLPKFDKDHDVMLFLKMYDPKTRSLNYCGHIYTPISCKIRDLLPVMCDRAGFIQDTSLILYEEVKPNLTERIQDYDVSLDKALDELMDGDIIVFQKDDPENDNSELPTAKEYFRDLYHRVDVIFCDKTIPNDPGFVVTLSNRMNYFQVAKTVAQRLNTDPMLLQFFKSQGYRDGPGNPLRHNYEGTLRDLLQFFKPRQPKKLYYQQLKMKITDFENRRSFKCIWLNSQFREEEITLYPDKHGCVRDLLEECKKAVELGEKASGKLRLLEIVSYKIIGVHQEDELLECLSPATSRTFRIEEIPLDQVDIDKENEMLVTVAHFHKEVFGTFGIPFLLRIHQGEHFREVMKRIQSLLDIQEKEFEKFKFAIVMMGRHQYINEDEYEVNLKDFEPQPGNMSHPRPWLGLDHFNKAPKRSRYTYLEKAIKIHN

[2] = target: T2, recombinant full length His6-MBP-FAN1-His6 (human, UniProt Q9Y2M0 1-1017); assay: pull-down; in vitro streptavidin pull-down with recombinant biotin-tagged USP7 TRAF-like or UBL domains and MBP-His-tagged FAN1 (Figure S3A); details: both partners purified
T2 construct: human FAN1, full length; Tag ends are read from the printed name His6-MBP-FAN1-His6; also called MBP-His-tagged FAN1; recombinant human FAN1; source: E. coli BL21, purified (HisTrap, MBPTrap, desalting); not shown: His6, N-terminal, kept; MBP, N-terminal, kept; His6, C-terminal, kept
T2 sequence (looked up): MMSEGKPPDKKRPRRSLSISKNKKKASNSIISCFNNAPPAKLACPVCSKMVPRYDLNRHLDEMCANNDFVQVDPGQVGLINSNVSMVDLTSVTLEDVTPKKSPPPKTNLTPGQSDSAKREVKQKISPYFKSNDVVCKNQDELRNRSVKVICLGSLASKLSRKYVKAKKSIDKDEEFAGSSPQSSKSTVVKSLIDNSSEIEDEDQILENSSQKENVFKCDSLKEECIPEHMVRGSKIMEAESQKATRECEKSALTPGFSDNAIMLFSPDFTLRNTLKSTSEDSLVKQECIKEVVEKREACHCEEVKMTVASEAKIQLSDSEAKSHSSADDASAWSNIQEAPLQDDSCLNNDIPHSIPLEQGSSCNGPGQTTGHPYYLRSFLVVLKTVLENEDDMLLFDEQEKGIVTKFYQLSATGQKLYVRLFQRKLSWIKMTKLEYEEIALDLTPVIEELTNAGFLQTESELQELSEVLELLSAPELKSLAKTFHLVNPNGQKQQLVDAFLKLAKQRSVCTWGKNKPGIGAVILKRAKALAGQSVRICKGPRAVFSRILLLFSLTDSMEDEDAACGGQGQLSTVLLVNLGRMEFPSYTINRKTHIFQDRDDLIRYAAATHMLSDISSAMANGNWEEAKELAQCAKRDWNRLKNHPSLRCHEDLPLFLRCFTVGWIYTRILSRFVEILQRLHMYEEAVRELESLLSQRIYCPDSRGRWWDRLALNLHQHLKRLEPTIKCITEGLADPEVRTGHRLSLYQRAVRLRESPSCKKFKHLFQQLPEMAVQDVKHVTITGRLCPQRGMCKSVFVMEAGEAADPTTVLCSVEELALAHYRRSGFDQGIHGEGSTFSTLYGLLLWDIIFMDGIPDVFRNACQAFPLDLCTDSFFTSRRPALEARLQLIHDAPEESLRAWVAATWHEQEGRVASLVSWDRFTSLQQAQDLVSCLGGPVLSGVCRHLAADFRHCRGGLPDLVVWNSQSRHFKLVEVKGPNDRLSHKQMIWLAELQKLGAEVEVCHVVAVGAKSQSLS

- binding result [1]: binds
B1: GST-FAN1-NTD (aa 1-372) (domain or fragment, human, UniProt Q9Y2M0 1-372, looked up)
chain: MMSEGKPPDKKRPRRSLSISKNKKKASNSIISCFNNAPPAKLACPVCSKMVPRYDLNRHLDEMCANNDFVQVDPGQVGLINSNVSMVDLTSVTLEDVTPKKSPPPKTNLTPGQSDSAKREVKQKISPYFKSNDVVCKNQDELRNRSVKVICLGSLASKLSRKYVKAKKSIDKDEEFAGSSPQSSKSTVVKSLIDNSSEIEDEDQILENSSQKENVFKCDSLKEECIPEHMVRGSKIMEAESQKATRECEKSALTPGFSDNAIMLFSPDFTLRNTLKSTSEDSLVKQECIKEVVEKREACHCEEVKMTVASEAKIQLSDSEAKSHSSADDASAWSNIQEAPLQDDSCLNNDIPHSIPLEQGSSCNGPGQTTGH
notes: also called GST-tagged FAN1; source: E. coli BL21-CodonPlus RIL, purified from soluble extracts on Glutathione Sepharose beads

- binding result [2]: binds
B2: USP7 UBL domain (residues 520-1067), biotinylated (domain or fragment, human, UniProt Q93009 520-1067, looked up)
chain: RESKLSEVLQAVTDHDIPQQLVERLQEEKRIEAQKRKERQEAHLYMQVQIVAEDQFCGHQGNDMYDEEKVKYTVFKVLKNSSLAEFVQSLSQTMGFPQDQIRLWPMQARSNGTKRPAMLDNEADGNKTMIELSDNENPWTIFLETVDPELAASGATLPKFDKDHDVMLFLKMYDPKTRSLNYCGHIYTPISCKIRDLLPVMCDRAGFIQDTSLILYEEVKPNLTERIQDYDVSLDKALDELMDGDIIVFQKDDPENDNSELPTAKEYFRDLYHRVDVIFCDKTIPNDPGFVVTLSNRMNYFQVAKTVAQRLNTDPMLLQFFKSQGYRDGPGNPLRHNYEGTLRDLLQFFKPRQPKKLYYQQLKMKITDFENRRSFKCIWLNSQFREEEITLYPDKHGCVRDLLEECKKAVELGEKASGKLRLLEIVSYKIIGVHQEDELLECLSPATSRTFRIEEIPLDQVDIDKENEMLVTVAHFHKEVFGTFGIPFLLRIHQGEHFREVMKRIQSLLDIQEKEFEKFKFAIVMMGRHQYINEDEYEVNLKDFEPQP
modifications: biotin (on the AviTag)
notes: human USP7 UBL domain, residues 520-1067; p28BIOH-LIC vector; also called USP7 UBL domains; source: E. coli BL21(DE3)-pBirAcm, purified (TALON, SEC); not shown: AviTag, N-terminal, kept
